Data taken from patent publication US20030077318A1 (Scripps Research, published 2003).

Target: T1, VSV-7 (Vesicular stomatitis virus)
T1 construct: also called GYVYQGL
Experiment: competitive RIA against [^125I]VSV-8 on K^bsol, P30 gel filtration, 23° C.

B1: soluble H-2K^b (K^bsol), heterodimer of truncated K^b heavy chain and murine β-2 microglobulin, purified empty from Drosophila cells (other)
alpha: GPHSLRYFVTAVSRPGLGEPRYMEVGYVDDTEFVRFDSDAENPRYEPRARWMEQEGPEYWERETQKAKGNEQSFRVDLRTLLGYYNQSKGGSHTIQVISGCEVGSDGRLLRGYQQYAYDGCDYIALNEDLKTWTAADMAALITKHKWEQAGEAERLRAYLEGTCVEWLRRYLKNGNATLLRTDSPKAHVTHHSRPEDKVTLRCWALGFYPADITLTWQLNGEELIQDMELVETRPAGDGTFQKWASVVVPLGKEQYYTCHVYHQGLPEPLTLRW
b2m: IQKTPQIQVYSRHPPENGKPNILNCYVTQFHPPHIEIQMLKNGKKIPKVEMSDMSFSKDWSFYILAHTEFTPTETDTYACRVKHASMAEPKTVYWDRDM
notes: also called H-2K^b Sol; soluble K^b
  Kd: 53 nM
